Test results taken from article PMC10117073.

Columns and labels:
[1] = molecular target: mature Geh (mGeh) (S. aureus); experiment: SEC; analytical gel filtration column (HiLoad 13/300 Super 200); molecular weight estimated from a standard curve (thyroglobulin, ferritin, aldolase, conalbumin, ovalbumin, RNase A, aprotinin)
[2] = molecular target: proGeh (glycerol ester hydrolase, pro form) (S. aureus); experiment: as above

Substance | stoichiometry N [1] | stoichiometry N [2]
mature Geh (mGeh) (enzyme) | 2 | –
proGeh (glycerol ester hydrolase, pro form) (from UniProt A0A1R3UHM3 38-645) (enzyme) | – | 2
